Measurements as given in PMC5095531.

Target: T1, native human lipocalin 2 (LCN2) (human), P80188
T1 chain: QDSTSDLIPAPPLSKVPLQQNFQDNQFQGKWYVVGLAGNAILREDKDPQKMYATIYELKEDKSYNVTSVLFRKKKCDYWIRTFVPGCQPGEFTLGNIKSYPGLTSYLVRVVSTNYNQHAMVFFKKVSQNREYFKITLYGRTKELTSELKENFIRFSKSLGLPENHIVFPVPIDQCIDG
Experiment: non-reducing SDS-PAGE with immunoblot; purified proteins in vitro, non-reducing conditions, anti-human LCN2 antibodies; monomer about 20 kDa, dimer about 40 kDa
Details: remark: other sources report otherwise

stoichiometry N: 2
B1: native human lipocalin 2 (LCN2), P80188-1 21-198 (natural protein)
chain: T1 chain
